# Laboratory results taken from the Human Domainome abundance scans (Beltran et al. 2025).
# ± gives the uncertainty stated by the source.
# B1: 3'-5' exoribonuclease 1, residues 65 to 114; numbered along this chain, Q8IV48 (parent)
# chain: VYKEIAITNGCINRMSKEELRAKLSEFKLETRGVKDVLKKRLKNYYKKQK
# Variants of: B1
# Test: abundance fitness (aPCA) (normalised: wild type 0, dead -1); higher = more abundant; growth selection in yeast, the domain comes from the species named
# Conditions: Homo sapiens
row,Variant,abundance fitness
1,VYKEIAITNGCINRMSKEELRAKLSEFKLETRGVKDVLKKRLKNQYKKQK,-0.876 ± 0.081
2,VYKEIAITNGCINRMSKEELRAKLSEFKLETRGVKDVLKKRLKNEYKKQK,-0.63 ± 0.048
3,VYKEIAITNGCINRMSKEELRAKLSEFKLETRGVKDVLKKRLKNGYKKQK,-0.891 ± 0.045
4,VYKEIAITNGCINRMSKEELRAKLSEFKLETRGVKDVLKKRLKNWYKKQK,-0.051 ± 0.048
5,VYKEIAITNGCINRMSKEELRAKLSEFKLETRGVKDVLKKRLKNHYKKQK,-0.048 ± 0.06
6,VYKEIAITNGCINRMSKEELRAKLSEFKLETRGVKDVLKKRLKNDYKKQK,-0.954 ± 0.076
7,VYKEIAITNGCINRMSKEELRAKLSEFKLETRGVKDVLKKRLKNPYKKQK,-0.995 ± 0.087
8,VYKEIAITNGCINRMSKEELRAKLSEFKLETRGVKDVLKKRLKNSYKKQK,-0.279 ± 0.042
9,VYKEIAITNGCINRMSKEELRAKLSEFKLETRGVKDVLKKRLKNMYKKQK,-0.643 ± 0.059
10,VYKEIAITNGCINRMSKEELRAKLSEFKLETRGVKDVLKKRLKNTYKKQK,-1 ± 0.065
11,VYKEIAITNGCINRMSKEELRAKLSEFKLETRGVKDVLKKRLKNLYKKQK,-0.637 ± 0.045
12,VYKEIAITNGCINRMSKEELRAKLSEFKLETRGVKDVLKKRLKNRYKKQK,-0.878 ± 0.051
13,VYKEIAITNGCINRMSKEELRAKLSEFKLETRGVKDVLKKRLKNVYKKQK,-0.8 ± 0.039
14,VYKEIAITNGCINRMSKEELRAKLSEFKLETRGVKDVLKKRLKNAYKKQK,-0.383 ± 0.038
15,VYKEIAITNGCINRMSKEELRAKLSEFKLETRGVKDVLKKRLKNFYKKQK,-0.094 ± 0.076
16,VYKEIAITNGCINRMSKEELRAKLSEFKLETRGVKDVLKKRLKNKYKKQK,-0.916 ± 0.081
17,VYKEIAITNGCINRMSKEELRAKLSEFKLETRGVKDVLKKRLKNIYKKQK,-0.664 ± 0.08
18,VYKEIAITNGCINRMSKEELRAKLSEFKLETRGVKDVLKKQLKNYYKKQK,-0.992 ± 0.066
19,VYKEIAITNGCINRMSKEELRAKLSEFKLETRGVKDVLKKCLKNYYKKQK,-1.01 ± 0.078
20,VYKEIAITNGCINRMSKEELRAKLSEFKLETRGVKDVLKKYLKNYYKKQK,-0.941 ± 0.12
21,VYKEIAITNGCINRMSKEELRAKLSEFKLETRGVKDVLKKPLKNYYKKQK,-0.803 ± 0.063
22,VYKEIAITNGCINRMSKEELRAKLSEFKLETRGVKDVLKKILKNYYKKQK,-0.865 ± 0.18
23,VYKEIAITNGCINRMSKEELRAKLSEFKLETRGVKDVLKKHLKNYYKKQK,-1.02 ± 0.12
24,VYKEIAITNGCINRMSKEELRAKLSEFKLETRGVKDVLKKALKNYYKKQK,-0.891 ± 0.046
25,VYKEIAITNGCINRMSKEELRAKLSEFKLETRGVKDVLKKMLKNYYKKQK,-0.803 ± 0.062
26,VYKEIAITNGCINRMSKEELRAKLSEFKLETRGVKDVLKKKLKNYYKKQK,-0.914 ± 0.089

row,Variant,abundance fitness
1,VYKEIAITNGCINRMSKEELRAKLSEFKLETRGVKDVLKKWLKNYYKKQK,-0.975 ± 0.06
2,VYKEIAITNGCINRMSKEELRAKLSEFKLETRGVKDVLKKFLKNYYKKQK,-0.887 ± 0.18
3,VYKEIAITNGCINRMSKEELRAKLSEFKLETRGVKDVLKKNLKNYYKKQK,-0.895 ± 0.17
4,VYKEIAITNGCINRMSKEELRAKLSEFKLETRGVKDVLKKDLKNYYKKQK,-1.09 ± 0.15
5,VYKEIAITNGCINRMSKEELRAKLSEFKLETRGVKDVLKKTLKNYYKKQK,-0.963 ± 0.067
6,VYKEIAITNGCINRMSKEELRAKLSEFKLETRGVKDVLKKVLKNYYKKQK,-1.02 ± 0.052
7,VYKEIAITNGCINRMSKEELRAKLSEFKLETRGVKDVLKKSLKNYYKKQK,-0.641 ± 0.044
8,VYKEIAITNGCINRMSKEELRAKLSEFKLETRGVKDVLKKELKNYYKKQK,-1.02 ± 0.067
9,VYKEIAITNGCINRMSKEELRAKLSEFKLETRGVKDVLKKRLFNYYKKQK,-0.755 ± 0.062
10,VYKEIAITNGCINRMSKEELRAKLSEFKLETRGVKDVLKKRLLNYYKKQK,-0.593 ± 0.042
11,VYKEIAITNGCINRMSKEELRAKLSEFKLETRGVKDVLKKRLCNYYKKQK,-0.823 ± 0.061
12,VYKEIAITNGCINRMSKEELRAKLSEFKLETRGVKDVLKKRLDNYYKKQK,-0.737 ± 0.099
13,VYKEIAITNGCINRMSKEELRAKLSEFKLETRGVKDVLKKRLMNYYKKQK,-0.506 ± 0.063
14,VYKEIAITNGCINRMSKEELRAKLSEFKLETRGVKDVLKKRLRNYYKKQK,-0.366 ± 0.036
15,VYKEIAITNGCINRMSKEELRAKLSEFKLETRGVKDVLKKRLNNYYKKQK,-0.39 ± 0.061
16,VYKEIAITNGCINRMSKEELRAKLSEFKLETRGVKDVLKKRLQNYYKKQK,-0.469 ± 0.068
17,VYKEIAITNGCINRMSKEELRAKLSEFKLETRGVKDVLKKRLYNYYKKQK,-0.723 ± 0.083
18,VYKEIAITNGCINRMSKEELRAKLSEFKLETRGVKDVLKKRLINYYKKQK,-0.448 ± 0.074
19,VYKEIAITNGCINRMSKEELRAKLSEFKLETRGVKDVLKKRLHNYYKKQK,-0.729 ± 0.072
20,VYKEIAITNGCINRMSKEELRAKLSEFKLETRGVKDVLKKRLENYYKKQK,-0.712 ± 0.063
21,VYKEIAITNGCINRMSKEELRAKLSEFKLETRGVKDVLKKRLGNYYKKQK,-0.846 ± 0.043
22,VYKEIAITNGCINRMSKEELRAKLSEFKLETRGVKDVLKKRLTNYYKKQK,-0.55 ± 0.058
23,VYKEIAITNGCINRMSKEELRAKLSEFKLETRGVKDVLKKRLPNYYKKQK,-0.806 ± 0.063
24,VYKEIAITNGCINRMSKEELRAKLSEFKLETRGVKDVLKKRLVNYYKKQK,-0.597 ± 0.047
25,VYKEIAITNGCINRMSKEELRAKLSEFKLETRGVKDVLKKRLANYYKKQK,-0.579 ± 0.05
26,VYKEIAITNGCINRMSKEELRAKLSEFKLETRGVKDVLKKRLKNYYAKQK,-0.288 ± 0.044
